The record followed here is patent US20240059782A1 (AGILENT TECHNOLOGIES, published 2024).

The target in assay [1] is T1, human B-cell maturation antigen (BCMA) (human, UniProt Q02223 1-184).
T1 construct: whole, on cells; Endogenous BCMA in tissue sections and BCMA-positive cell lines; also called tumor necrosis factor receptor superfamily member 17; TNFRSF17
T1 sequence (looked up): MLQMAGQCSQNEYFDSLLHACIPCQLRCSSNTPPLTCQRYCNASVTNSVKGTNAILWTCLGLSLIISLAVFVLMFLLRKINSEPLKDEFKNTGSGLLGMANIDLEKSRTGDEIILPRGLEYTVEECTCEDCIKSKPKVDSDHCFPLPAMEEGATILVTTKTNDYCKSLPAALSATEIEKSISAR
Kind of assay: supersensitive IHC on normal colon.

For assay [2], the target named is T2, recombinant fusion protein containing the entire extracellular domain of human BCMA (amino acids 1-54) in … (human, UniProt Q02223 1-54).
T2 construct: range 1-54; Expressed in HEK cells; also called BCMA antigen; extracellular BCMA antigen; not shown: rabbit Fc domain
T2 sequence (looked up): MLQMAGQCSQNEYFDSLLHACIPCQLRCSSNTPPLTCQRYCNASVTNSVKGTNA
Kind of assay: BLI (BLItz), recombinant antibody on the immunising antigen.

The target of assay [3] is T1, human B-cell maturation antigen (BCMA). Kind of assay: standard IHC (Envision FLEX) on reactive lymph node.
For assay [4] the target is unchanged. Kind of assay: supersensitive IHC on reactive lymph node.
In assay [5] the target is T3, recombinant fusion protein containing the entire intracellular domain of BCMA (amino acids 78-184) (human, UniProt Q02223 78-184).
T3 construct: range 78-184; also called intracellular BCMA antigen; the antigen
T3 sequence (looked up): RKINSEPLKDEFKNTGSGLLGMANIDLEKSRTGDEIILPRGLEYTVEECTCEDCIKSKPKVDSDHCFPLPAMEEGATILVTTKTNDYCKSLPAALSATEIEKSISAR
Kind of assay: BLI (BLItz), recombinant antibody on the immunising antigen.

B1: anti-human BCMA antibody clone 9H5 (Extracellular) (antibody, V domains shown)
VH: QSLEESGGRLVTPGGSLTLTCTVSGFSLSAYAMSWVRQAPGKGLEWIGYINYDGIAYYTNWAKGRFTISKTSTTVDLKITSPTTEDTAAYFCASDLLGVFNLWGQGTLVTVSS
VL: AAVLTQTASPVSAAVGGTVTINCQASQSVYSNNRLSWFQQKPGQPPKLLIYYASFLASGVPSRFKGSGSGAQFTLTISDLQCDDAATYYCAGGYISYSDNAFGGGTEVVVKG
notes: Rabbit monoclonal IgG/kappa1; The chains are built here from V + constant entries so that the signal peptide is left out; Supersensitive IHC used B-cell culture supernatant; BLI and standard IHC used recombinant antibody from HEK293-6E cells; also called B cell clone 9H5; BCMA clone 9H5
On to B1, for which the binding result in assay [1] and in assay [2] was “binds” each time.

B2: anti-human BCMA antibody clone 10A2 (Extracellular) (antibody, V domains shown)
VH: QSVEESGGRLVTPGTPLTLTCTASGFSLTTYAMGWVRQAPGKGLEWIGYIWSSGTTDYASWAKGRFTISKTSPTVDLKMTSPTTEDTATYFCARYINYVTGDLWGQGTLVTVSS
VL: AQVLTQTPSPVSADVGGTVTINCQASQSVYNNVLLAWYQQKAGQPPKLLIYKASTLASGVSSRFKGSGSGTQFTLTISGVQCDDAATYYCQGEFSCSSADCTAFGGGTEVVVKG
notes: Rabbit monoclonal IgG/kappa1; The chains are built here from V + constant entries so that the signal peptide is left out; Supersensitive IHC used B-cell culture supernatant; BLI and standard IHC used recombinant antibody from HEK293-6E cells; also called B cell clone 10A2; BCMA clone 10A2
B2: the binding result in assay [3] and in assay [2] was “binds” in each case.

B3: anti-human BCMA antibody clone 5C1 (intracellular) (antibody, V domains shown)
VH: QSLEESRGGLFKPTDTLTLTCTVSGFSLKTYVINWVRQAPGNGLEWIGIIDTGDMTYYASWAKSRSTITRNTNENTVTLKMTSLTAADTATYFCASGDIWGPGTLVTVSS
VL: AQVLTQTASPVSAAVGGTVTINCQASQSVYSNWLSWFQQKPGQPPKRLIYSASTLASGVSSRFKGSGSGTQFTLTISDVQCDDAATYYCLGEFNCARADCRAFGGGTEVVVKG
notes: Rabbit monoclonal IgG/kappa1; also called B cell clone 5C1; intracellular clone 5C1
For the molecule B3, the binding result in assay [4] and in assay [5] was “binds” in each case.
